Earlier results as cited in patent US20260055200A1, “COMBINATION THERAPIES” (Alligator Bioscience AB, priority 2022, published 2026).
Read-outs that look alike come from different tables or passages of the source.

Experiments:
[1] = test system: metastatic pancreatic cancer; settings: PRODIGE 4, 342 patients; cited from earlier work
[2] = test system: metastatic pancreatic cancer; settings: MPACT study; cited from earlier work
[3] = test system: metastatic pancreatic cancer; settings: standard first-line treatment; cited from earlier work
[4] = test system: previously untreated pancreatic cancer; settings: cited from earlier work
[5] = test system: previously untreated metastatic pancreatic cancer; settings: cited from earlier work
[6] = in combination with Gem-NabPac with or without nivolumab

Nc1ccn([C@@H]2O[C@H](CO)[C@@H](O)C2(F)F)c(=O)n1 [gemcitabine]
mOS [1]: 6.8 months
objective response rate (ORR) [1]: 9.4%
ORR [2]: 7%
mOS [2]: 6.7 months
median overall survival (mOS) [3]: about 6 months

Selicrelumab: CD40 agonistic monoclonal antibody, with an IgG2 format
DLT ([4]; 0.2 mg/kg dose level, with gemcitabine): One DLT, a cerebrovascular accident
proportion of patients with liver enzyme elevations ([4]; all grade 1-2, with gemcitabine): approximately ⅔
dose up to which the combination was well tolerated ([4]; in combination with gemcitabine): up to 0.2 mg/kg
complete responses ([4]; with gemcitabine): no complete responses (CR) were observed
patients with cytokine release syndrome in relation to the infusion ([4]; with gemcitabine): 20 of the 22
response rate ([4]; with gemcitabine): 19%

B1: APX005M: CD40 agonistic monoclonal antibody, with a mutated IgG1 format for improved binding to FcγR2b (antibody, chains of the INN, looked up, V domains shown)
VH: QVQLVESGGGVVQPGRSLRLSCAASGFSFSSTYVCWVRQAPGKGLEWIACIYTGDGTNYSASWAKGRFTISKDSSKNTVYLQMNSLRAEDTAVYFCARPDITYGFAINFWGPGTLVTVSS
VL: DIQMTQSPSSLSASVGDRVTIKCQASQSISSRLAWYQQKPGKPPKLLIYRASTLASGVPSRFSGSGSGTDFTLTISSLQPEDVATYYCQCTGYGISWPIGGGTKVEIK
Complete Response, patients ([5]; Total (N = 24)): 0
Not Evaluable, patients (%) ([5]; Total (N = 24)): 1 (4%)
Partial Response, patients (%) ([5]; Total (N = 24)): 13 (54%)
Progressive Disease, patients (%) ([5]; Total (N = 24)): 1 (4%)
Stable Disease, patients (%) ([5]; Total (N = 24)): 9 (38%)
circulating mutant KRAS DNA [5, 6]: marked and rapid decrease
immune profiling of PBMCs, myeloid compartment [5, 6]: rapid activation of DCs in most patients
